Test results published in patent US20240124575A1 (SIMCERE ZAIMING PHARMACEUTICAL, published 2024).

Columns and labels:
[1] = biological target: T1, human CD33-His (extracellular domain Asp 18-His 259) (human, UniProt P20138 18-259); test: competitive ELISA vs coated S006-NB146-69 3ug/mL; soluble 25ug/ml
T1 construct: range 18-259; bought protein; also called hCD33-his; human CD33 protein; not shown: His tag

[2] = biological target: T1, human CD33-His (extracellular domain …); test: competitive ELISA vs coated S006-NB146-20 2ug/mL; soluble 25ug/ml
Procedure: (§1) VHH antibodies and control antibodies with known epitopes were subjected to epitope classification with competitive ELISA. ELISA plates were coated with 2 μg/mL antibodies according to the method in Example 5.1; the human CD33-his protein was subjected to a gradient dilution from 30 μg/mL, and EC80 values (Tables 26-27) were calculated. ELISA plates were coated with 2 μg/mL antibodies; after 25 µg/mL of antibodies to be tested were added, a human CD33-his protein having an EC80 concentration corresponding to each of the antibodies to be tested was then added for incubation for 2 h. The plates were washed 5 times with PBS, then HRP-labeled anti-His antibodies (purchased from GenScript, Cat. No. A00612) were added for incubation for 1 h, and the plates were washed 5 times. A TMB substrate was added at 50 μL/well and incubated at room temperature for 10 min, then a stop solution (1.0 M HCl) was added at 50 μL/well. OD_{450 nm} values were read using an ELISA plate reader (Insight, purchased from PerkinElmer), and the competition rate between the antibodies was calculated according to the OD_{450 nm} values using a formula. The results are shown in FIGS. 12A-12B, the higher the value of the competition rate, the closer the epitopes to which two antibodies bind.

[3] = biological target: T1, human CD33-His (extracellular domain …); test: competitive ELISA vs coated S006-NB146-132 2ug/mL; soluble 25ug/ml
Procedure: as §1

[4] = biological target: T1, human CD33-His (extracellular domain …); test: competitive ELISA vs coated S006-NB146-46 2ug/mL; soluble 25ug/ml
Procedure: as §1

[5] = biological target: T1, human CD33-His (extracellular domain …); test: competitive ELISA vs coated S006-NB147-225 2ug/mL; soluble 25ug/ml
Procedure: as §1

human CD33-C2-his = biological target: T2, human CD33-C2-his (human, UniProt P20138 136-260); test: ELISA on coated human CD33-C2-his
T2 construct: expressed in HEK293E; also called hCD33-C2-his; human CD33 protein C2-domain; not shown: His tag
T2 sequence (P20138 other isoform, or with tags, fused parts or gaps limits assumed): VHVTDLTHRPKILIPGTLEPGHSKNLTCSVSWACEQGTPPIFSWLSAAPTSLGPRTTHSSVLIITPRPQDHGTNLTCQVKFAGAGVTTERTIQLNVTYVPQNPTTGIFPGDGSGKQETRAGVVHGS
Excerpt: Plates were coated with human CD33-V-his (membrane distal end) and human CD33-C2-his (membrane proximal end), respectively, according to the ELISA method in Example 8. The VHH humanized antibodies were classified based on the membrane distal end and the membrane proximal end, as shown in FIGS. 20A-20J and Table 44, which allowed the classification of the VHH humanized antibodies into the following classes: […]

human CD33-his protein [6] = biological target: T3, human CD33-his protein (human, UniProt P20138 18-259); test: competition ELISA, coated human CD33-his, vs Biotin-C33B904 at EC80; antibody 3.91 nM
T3 construct: range 18-259; bought protein; also called hCD33-his; recombinant human CD33-his; not shown: His tag
T3 sequence (P20138 18-259 limits assumed): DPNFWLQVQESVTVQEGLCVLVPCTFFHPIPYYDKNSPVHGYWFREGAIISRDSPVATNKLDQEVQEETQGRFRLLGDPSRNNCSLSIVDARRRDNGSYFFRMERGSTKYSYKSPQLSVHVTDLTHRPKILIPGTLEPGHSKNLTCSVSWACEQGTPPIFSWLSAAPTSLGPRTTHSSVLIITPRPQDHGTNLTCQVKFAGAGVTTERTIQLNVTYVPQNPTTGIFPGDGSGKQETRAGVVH
Procedure: (§2) The plate was sealed with a plastic film and incubated at 4° C. overnight, washed twice with PBS the next day, and a blocking solution [PBS+2% (w/w) BSA] was added for blocking at room temperature for 2 h. The blocking solution was discarded, and VHH-Fc antibody or negative control antibody serially diluted from 100 nM was added at 50 μL/well. After incubation at 37° C. for 2 h, the plate was washed 3 times with PBS. A secondary antibody labeled with HRP (horseradish peroxidase) (purchased from Sigma, Cat. No. A0170) was added. After incubation for 1 h at 37° C., the plate was washed 5 times with PBS. A TMB substrate was added at 50 μL/well. After incubation at room temperature for 10 min, a stop solution (1.0 N HCl) was added at 50 μL/well. The OD450 nm values were read on an ELISA plate reader (Multimode Plate Reader, EnSight, purchased from Perkin Elmer). The assay results for the binding of the VHH-Fc to hCD33-his by ELISA are shown in FIGS. 7A and 7B and Tables 11 and 12. […] The IgG control was hIgG1, and the data in the table are OD450 nm values.
(§3) ELISA plates were coated with 2 μg/mL human CD33-his protein according to the method in Example 5.1; the Biotin-C331B904 antibody was subjected to a gradient dilution from 15 μg/mL, and EC80 values (0.18 μg/mL) were calculated. […] OD_{450 nm} values were read using an ELISA plate reader (Insight, purchased from PerkinElmer). […]

human CD33-his protein [7] = biological target: T3, human CD33-his protein; test: competition ELISA, coated human CD33-his, vs Biotin-C33B904 at EC80; antibody 0.49 nM
Procedure: (§4) ELISA plates were coated with 2 μg/mL human CD33-his protein according to the method in Example 5.1; the Biotin-C331B904 antibody was subjected to a gradient dilution from 15 μg/mL, and EC80 values (0.18 μg/mL) were calculated. ELISA plates were coated with 2 μg/mL human CD33-his protein; starting from 40 μg/mL, the VHH antibodies to be tested were diluted in a 1:2 dilution ratio to obtain seven concentrations and added to the ELISA plates, and then Biotin-C331904 antibodies with the EC80 concentrations were added for incubation for 2 h. The plates were washed 5 times with PBS and then […] (purchased from Sigma, Cat. No. S2438) were added for incubation for 1 h, and the plates were washed 5 times. A TMB substrate was added at 50 μL/well and incubated at room temperature for 10 min, then a stop solution (1.0 M HCl) was added at 50 μL/well. OD_{450 nm} values were read using an ELISA plate reader (Insight, purchased from PerkinElmer). Then, analysis was performed by software (GraphPad Prism8), and data were fitted for curve plotting. The results are shown in FIGS. 13A-13B and Tables 28 and 29.

human CD33-his protein [8] = biological target: T3, human CD33-his protein; test: competition ELISA, coated human CD33-his, vs Biotin-C33B904 at EC80; antibody 3.91 nM; remark: listed apart in the source
Procedure: as §4

human CD33-his protein [9] = biological target: T3, human CD33-his protein; test: competition ELISA, coated human CD33-his, vs Biotin-C33B904 at EC80; antibody 15.63 nM
Procedure: as §2, §3

human CD33-his protein [10] = biological target: T3, human CD33-his protein; test: competition ELISA, coated human CD33-his, vs Biotin-C33B904 at EC80; antibody 31.25 nM
Procedure: as §4

T1 sequence (P20138 18-259 limits assumed): as above

| inhibition rate [1] | inhibition rate [2] | inhibition rate [3] | inhibition rate [4] | inhibition rate [5] | EC50 (read off the curve) (human CD33-C2-his) | OD450 (Biotin-C33B904 signal) (human CD33-his protein [6]) | OD450 (Biotin-C33B904 signal) (human CD33-his protein [7]) | OD450 (Biotin-C33B904 signal) (human CD33-his protein [8]) | OD450 (Biotin-C33B904 signal) (human CD33-his protein [9]) | OD450 (Biotin-C33B904 signal) (human CD33-his protein [10]) | Binder |
| --- | --- | --- | --- | --- | --- | --- | --- | --- | --- | --- | --- |
| 99% | 100% | 98% | 92% | 96% | ~0.05 nM | – | – | – | – | – | C33B904 hIgG1 (antibody, V domains shown, intact human IgG1; variable regions from US20190382481A1; also called C33B3904; C331B904) VH: EVQLVESGGGLVQPGRSLRLSCAASGFTFDDYAMHWVRQAPGKGLEWVSGIGWSGGSIVYADSVKGRFTISRDNAKNSLYLQMNSLRAEDTALYYCAKDSPYGDFFDYWGQGTLVTVSS VL: DIVMTQSPDSLAVSLGERATINCKSSQTVFYSSNNKNYLAWYQQKPGQPPKLLISWASTRKSGVPDRFSGSGSGTDFTLTVSSLQAEDVAVYYCQHYYSTPYTFGQGTKLEIKR |
| – | – | – | – | – | – | 2.25 | 2.26 | 1.77 | 0.88 | 0.66 | C33B904 (antibody, human IgG1, kappa, V domains shown, control antibody, intact human IgG1 form; variable regions from US20190382481A1; also called C33B904 hIgG1; C331B904) VH: EVQLVESGGGLVQPGRSLRLSCAASGFTFDDYAMHWVRQAPGKGLEWVSGIGWSGGSIVYADSVKGRFTISRDNAKNSLYLQMNSLRAEDTALYYCAKDSPYGDFFDYWGQGTLVTVSS VL: DIVMTQSPDSLAVSLGERATINCKSSQTVFYSSNNKNYLAWYQQKPGQPPKLLISWASTRKSGVPDRFSGSGSGTDFTLTVSSLQAEDVAVYYCQHYYSTPYTFGQGTKLEIKR |
